Results on one substance are retold here after patent US5573924.

Experiment [1] has as its target human CD27 ligand (CD27L), membrane-bound (human). The experiment can be described thus: indirect binding assay on CV-1/EBNA cells transfected with cloned CD27L: varying CD27/Fc, then 125I-mouse anti-human IgG; Scatchard analysis, low-affinity component.
Experiment [2] has the same target. Kind of experiment: indirect binding assay on MP-1 cells (native CD27L): varying CD27/Fc, then 125I-mouse anti-human IgG; Scatchard analysis, high-affinity component.
Experiment [3] has the same target. Kind of experiment: indirect binding assay on MP-1 cells (native CD27L): varying CD27/Fc, then 125I-mouse anti-human IgG; Scatchard analysis, low-affinity component.
Experiment [4] shares this target. Kind of experiment: indirect binding assay on CV-1/EBNA cells transfected with cloned CD27L: varying CD27/Fc, then 125I-mouse anti-human IgG; Scatchard analysis, high-affinity component.

For the substance “CD27/Fc fusion protein (from UniProt P26842)”, the Ka in experiment [1] turned out to be 1.2e+08 M⁻¹; in experiment [2], 1.58e+09 M⁻¹; in experiment [3] it was 1.83e+08 M⁻¹; in experiment [4], 2.7e+09 M⁻¹.
